This assay deals with BoNT serotype A (Clostridium botulinum, UniProt P0DPI0 2-1296). Nature of the assay: affinity; method not stated (yeast display affinity maturation).
Sequence of BoNT serotype A (P0DPI0 2-1296 limits assumed): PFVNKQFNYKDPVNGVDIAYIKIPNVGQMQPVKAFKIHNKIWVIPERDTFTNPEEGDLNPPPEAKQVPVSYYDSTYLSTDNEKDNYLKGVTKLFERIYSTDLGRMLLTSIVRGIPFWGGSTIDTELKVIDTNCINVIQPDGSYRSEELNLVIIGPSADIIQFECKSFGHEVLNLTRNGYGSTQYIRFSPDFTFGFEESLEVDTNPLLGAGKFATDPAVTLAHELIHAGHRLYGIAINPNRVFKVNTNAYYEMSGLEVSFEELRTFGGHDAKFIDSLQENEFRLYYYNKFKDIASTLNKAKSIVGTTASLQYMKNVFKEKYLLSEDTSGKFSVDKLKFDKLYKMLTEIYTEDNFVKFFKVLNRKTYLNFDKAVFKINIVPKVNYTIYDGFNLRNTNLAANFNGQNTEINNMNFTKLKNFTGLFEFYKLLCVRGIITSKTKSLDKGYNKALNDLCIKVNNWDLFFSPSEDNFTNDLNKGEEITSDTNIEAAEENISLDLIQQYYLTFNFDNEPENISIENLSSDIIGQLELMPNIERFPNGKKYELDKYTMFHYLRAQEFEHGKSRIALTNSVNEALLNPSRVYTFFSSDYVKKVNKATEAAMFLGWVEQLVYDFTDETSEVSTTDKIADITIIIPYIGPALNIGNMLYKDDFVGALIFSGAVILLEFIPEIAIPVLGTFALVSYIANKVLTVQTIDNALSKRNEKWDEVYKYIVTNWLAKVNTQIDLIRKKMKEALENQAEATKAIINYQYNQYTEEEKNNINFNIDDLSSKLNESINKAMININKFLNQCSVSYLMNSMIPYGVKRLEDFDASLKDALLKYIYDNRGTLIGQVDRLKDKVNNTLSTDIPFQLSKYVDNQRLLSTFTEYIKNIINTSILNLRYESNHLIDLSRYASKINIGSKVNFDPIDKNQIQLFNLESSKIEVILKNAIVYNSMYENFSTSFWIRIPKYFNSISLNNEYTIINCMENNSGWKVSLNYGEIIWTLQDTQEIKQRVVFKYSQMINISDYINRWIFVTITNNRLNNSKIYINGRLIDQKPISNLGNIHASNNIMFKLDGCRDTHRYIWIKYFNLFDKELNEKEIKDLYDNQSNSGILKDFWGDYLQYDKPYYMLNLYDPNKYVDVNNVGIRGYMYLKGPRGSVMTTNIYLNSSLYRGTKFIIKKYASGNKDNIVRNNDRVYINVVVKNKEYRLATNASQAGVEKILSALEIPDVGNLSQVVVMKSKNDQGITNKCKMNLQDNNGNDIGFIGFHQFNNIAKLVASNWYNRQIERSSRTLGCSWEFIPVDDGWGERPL

B1: H7 VHH (VHH)
VHH: QVQLVESGGGLVQVGGSLRLSCVVSGSDISGIAMGWYRQAPGKRREMVADIFSGGSTDYAGSVKGRFTISRDNAKKTSYLQMNNVKPEDTGVYYCRLYGSGDYWGQGTQVTVSS
B1 yielded a dissociation constant (Kd) of 0.042 nM.
